{"source": "paper doi:10.1101/2023.02.03.526835", "about": "(bioRxiv, 2023)", "proteins": {"B1": {"name": "Lcb2 (enzyme, S. cerevisiae)", "chain": "MSTPANYTRVPLCEPEELPDDIQKENEYGTLDSPGHLYQVKSRHGKPLPEPVVDTPPYYISLLTYLNYLILIILGHVHDFLGMTFQKNKHLDLLEHDGLAPWFSNFESFYVRRIKMRIDDCFSRPTTGVPGRFIRCIDRISHNINEYFTYSGAVYPCMNLSSYNYLGFAQSKGQCTDAALESVDKYSIQSGGPRAQIGTTDLHIKAEKLVARFIGKEDALVFSMGYGTNANLFNAFLDKKCLVISDELNHTSIRTGVRLSGAAVRTFKHGDMVGLEKLIREQIVLGQPKTNRPWKKILICAEGLFSMEGTLCNLPKLVELKKKYKCYLFIDEAHSIGAMGPTGRGVCEIFGVDPKDVDILMGTFTKSFGAAGGYIAADQWIIDRLRLDLTTVSYSESMPAPVLAQTISSLQTISGEICPGQGTERLQRIAFNSRYLRLALQRLGFIVYGVADSPVIPLLLYCPSKMPAFSRMMLQRRIAVVVVAYPATPLIESRVRFCMSASLTKEDIDYLLRHVSEVGDKLNLKSNSGKSSYDGKRQRWDIEEVIRRTPEDCKDDKYFVN", "modifications": "pyridoxal 5'-phosphate (PLP) as internal aldimine with K366"}}, "molecular_target": "the molecule itself", "test": "cryo-EM structure", "data": [{"protein": "B1", "values": [{"measurement": "binding result", "value": "binds"}]}]}
